Assay results: PMC6657678, “The Bub1-TPR Domain Interacts Directly with Mad3 to Generate Robust Spindle Checkpoint Arrest” (Current Biology, 2019)

Target: T1, His-Bub1TPR (fission yeast Bub1 residues 22-184) (S. pombe, UniProt O94751 22-184)
T1 construct: Bub1, S. pombe, TPR domain, residues 22-184; Cloned into pET-DUET; also called recombinant Bub1-TPR; source: E. coli ArcticExpress, purified (cobalt IMAC, dialysis); not shown: His, N-terminal, kept
T1 sequence (looked up): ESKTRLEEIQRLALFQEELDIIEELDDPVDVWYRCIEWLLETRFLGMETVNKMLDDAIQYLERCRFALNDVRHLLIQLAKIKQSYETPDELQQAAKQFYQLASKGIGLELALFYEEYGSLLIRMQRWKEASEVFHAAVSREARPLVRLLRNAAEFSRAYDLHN
Experiment: SEC; Superdex 200 increase 10/300 in 50 mM Tris pH 8.0, 150 mM NaCl, 5% glycerol, 2 mM DTT; proteins alone and mixed, fractions on SDS-PAGE
Settings: both partners purified

binding result: binds
B1: His-GFP-Mad3TPR (fission yeast Mad3 residues 44-201) (domain or fragment, S. pombe, UniProt O59767 44-201, looked up)
chain: TEKEVAGLQKERMGHERKIETSESLDDPLQVWIDYIKWTLDNFPQGETKTSGLVTLLERCTREFVRNPLYKDDVRYLRIWMQYVNYIDEPVELFSFLAHHHIGQESSIFYEEYANYFESRGLFQKADEVYQKGKRMKAKPFLRFQQKYQQFTHRWLEF
notes: Mad3, S. pombe, TPR domain, residues 44-201; Cloned into the 9GFP (N-terminal His-GFP tag) LIC vector; source: E. coli ArcticExpress, purified (cobalt IMAC, dialysis); not shown: His, N-terminal, kept; GFP, N-terminal, kept
